The source of these data is FireProtDB.

Several values for one entry are separate records, joined by “and”; a condition that tells them apart may be missing. Equal entries are not always repeated.

The conditions of the data set: whole UniProt chain shown.
The mark [1] stands for this setting: Bacillus subtilis (strain 168), pH 7, Thermal, CD, Potassium phosphate 50 mM, reversible: yes.
Setting [2] is: Bos taurus, pH 7.2, Thermal, DSC, phosphate 20 mM, reversible: yes (partial).
Setting [3] is: Bos taurus, pH 7.4, Thermal, DSC, potassium phosphate 20 mM, reversible: Yes (65%).
Where [4] appears, read: Bos taurus, pH 6.7, Thermal, DSC, phosphate 10 mM, MgCl2 0.5 mM, reversible: No.
Setting [5] is: Bos taurus, pH 7, Thermal, DSC, Potassium phosphate 67 mM, MgCl2 1 mM.

B1: Phosphocarrier protein HPr wild type, P08877 (protein)
chain: MAQKTFKVTADSGIHARPATVLVQTASKYDADVNLEYNGKTVNLKSIMGVMSLGIAKGAEITISASGADENDALNALEETMKSEGLGE
For B1, the “denaturant midpoint (higher = more stable)” value (Bacillus subtilis (strain 168), pH 7, 30 °C, Urea, CD, Potassium phosphate 50 mM, reversible: yes) is 3.93 M. Besides, under setting [1], the Tm (commonly the temperature at the midpoint of the melting transition) is 73.6 °C and 77.5 °C; the “unfolding enthalpy (van 't Hoff)” value was 59 kcal/mol and 63 kcal/mol.

B2: Alpha-crystallin A chain wild type, P02470 (protein)
chain: MDIAIQHPWFKRTLGPFYPSRLFDQFFGEGLFEYDLLPFLSSTISPYYRQSLFRTVLDSGISEVRSDRDKFVIFLDVKHFSPEDLTVKVQEDFVEIHGKHNERQDDHGYISREFHRRYRLPSNVDQSALSCSLSADGMLTFSGPKIPSGVDAGHSERAIPVSREEKPSSAPSS
As to B2, the unfolding free energy (Bos taurus, pH 5, 20 °C, Urea, Fluorescence, Sodium acetate 50 mM) came to 8.46 kcal/mol. Further, under setting [2], the midpoint of thermal melting (Tm) turned out to be 45.6 °C, the “unfolding enthalpy (calorimetric)” value was 98 kcal/mol and the “unfolding enthalpy (van 't Hoff)” value is 91 kcal/mol. Under setting [3], the Tm was 59.8 °C, the “heat capacity change of unfolding” value came to 1.36 kcal/mol/K, the “unfolding enthalpy (calorimetric)” value turned out to be 80.3 kcal/mol and the “unfolding enthalpy (van 't Hoff)” value is 78.6 kcal/mol.

B3: Beta-glucanase wild type, K0A689 (protein)
chain: MKRVLLILVTGLFMSLFAVTSTASAQTGGSFFDPFNGYNSGFWQKADGYSNGNMFNCTWRANNVSMTSLGEMRLALTSPSYNKFDCGENRSVQTYGYGLYEVRMKPAKNTGIVSSFFTYTGPTDGTPWDEIDIEFLGKDTTKVQFNYYTNGAGNHEKIVDLGFDAANAYHTYAFDWQPNSIKWYVDGQLKHTATNQIPTTPGKIMMNLWNGTGVDEWLGSYNGVNPLYAHYDWVRYTKK
As for B3, the Tm (Bacillus tequilensis, pH 6.5, Thermal, Activity, phosphate buffer) was 62 °C.

B4: Tubulin--tyrosine ligase wild type, P38584 (protein)
chain: MYTFVVRDENSSVYAEVSRLLLATGHWKRLRRDNPRFNLMLGERNRLPFGRLGHEPGLMQLVNYYRGADKLCRKASLVKLIKTSPELAESCTWFPESYVIYPTNLKTPVAPAQDGIHPPLHSSRTDEREFFLASYNRKKEEGEGNVWIAKSSAGAKGEGILISSDATELLDFIDNQGQVHVIQKYLERPLLLEPGHRKFDIRSWVLVDHQFNIYLYREGVLRTASEPYHMDNFQDKTCHLTNHCIQKEYSKNYGKYEEGNEMFFEAFNRYLTSALNITLESSILLQIKHIIRSCLMSVEPAISTKHLPYQSFQLFGFDFMVDEELKVWLIEVNGAPACAQKLYAELCQGIVDIAIASVFPPPDAEQQPPQPATFIKL
Consider B4, for which, under setting [4], the Tm amounted to 54.8 °C and the “unfolding enthalpy (calorimetric)” value worked out at 173 kcal/mol.

B5: NADP-dependent isopropanol dehydrogenase wild type, P25984 (protein)
chain: MKGFAMLGINKLGWIEKERPVAGSYDAIVRPLAVSPCTSDIHTVFEGALGDRKNMILGHEAVGEVVEVGSEVKDFKPGDRVIVPCTTPDWRSLEVQAGFQQHSNGMLAGWKFSNFKDGVFGEYFHVNDADMNLAILPKDMPLENAVMITDMMTTGFHGAELADIQMGSSVVVIGIGAVGLMGIAGAKLRGAGRIIGVGSRPICVEAAKFYGATDILNYKNGHIVDQVMKLTNGKGVDRVIMAGGGSETLSQAVSMVKPGGIISNINYHGSGDALLIPRVEWGCGMAHKTIKGGLCPGGRLRAEMLRDMVVYNRVDLSKLVTHVYHGFDHIEEALLLMKDKPKDLIKAVVIL
As to B5, the Tm (Clostridium beijerinckii, pH 6.8, Thermal, CD, Na/K phosphate 50 mM) was 65.1 °C.

B6: Malate dehydrogenase wild type, P80040 (protein)
chain: MRKKISIIGAGFVGSTTAHWLAAKELGDIVLLDFVEGVPQGKALDLYEASPIEGFDVRVTGTNNYADTANSDVIVVTSGAPRKPGMSREDLIKVNADITRACISQAAPLSPNAVIIMVNNPLDAMTYLAAEVSGFPKERVIGQAGVLDAARYRTFIAMEAGVSVEDVQAMLMGGHGDEMVPLPRFSTISGIPVSEFIAPDRLAQIVERTRKGGGEIVNLLKTGSAYYAPAAATAQMVEAVLKDKKRVMPVAAYLTGQYGLNDIYFGVPVILGAGGVEKILELPLNEEEMALLNASAKAVRATLDTLKSL
Turning to B6, under “Chloroflexus aurantiacus (strain ATCC 29366 / DSM 635 / J-10-fl), pH 7.5, Thermal, CD, potassium phosphate 10 mM, reversible: No”, the Tm stood at 67.8 °C.

B7: Rhodopsin wild type, P02699 (protein)
chain: MNGTEGPNFYVPFSNKTGVVRSPFEAPQYYLAEPWQFSMLAAYMFLLIMLGFPINFLTLYVTVQHKKLRTPLNYILLNLAVADLFMVFGGFTTTLYTSLHGYFVFGPTGCNLEGFFATLGGEIALWSLVVLAIERYVVVCKPMSNFRFGENHAIMGVAFTWVMALACAAPPLVGWSRYIPEGMQCSCGIDYYTPHEETNNESFVIYMFVVHFIIPLIVIFFCYGQLVFTVKEAAAQQQESATTQKAEKEVTRMVIIMVIAFLICWLPYAGVAFYIFTHQGSDFGPIFMTIPAFFAKTSAVYNPVIYIMMNKQFRNCMVTTLCCGKNPLGDDEASTTVSKTETSQVAPA
For B7, under setting [5], the Tm is 71.7 °C and the “unfolding enthalpy (calorimetric)” value was found to be 172 kcal/mol.

B8: wild type, B8YLY0 (protein)
chain: MKKVLMAFIICLSLILSVLAAPPSGAKAESVHNPVVLVHGISGASYNFFAIKNYLISQGWQSNKLYAIDFYDKTGNNLNNGPQLASYVDRVLKETGAKKVDIVAHSMGGANTLYYIKYLGGGNKIQNVVTLGGANGLVSSTALPGTDPNQKILYTSIYSLNDQIVINSLSRLQGARNIQLYGIGHIGLLSNSQVNGYIKEGLNGGGLNTN
As for B8, the “denaturant midpoint (higher = more stable)” value reads like this: (Bacillus subtilis, pH 0.8, 25 °C, GdnHCl, CD, KCl-HCl 20 mM, reversible: No) 3 M; (Bacillus subtilis, pH 0.8, 25 °C, GdnHCl, Fluorescence, KCl-HCl 20 mM, reversible: No) 2.6 M; (Bacillus subtilis, pH 7, 25 °C, GdnHCl, CD, Sodium phosphate 20 mM, reversible: Yes) 1 M; (Bacillus subtilis, pH 7, 25 °C, GdnHCl, Fluorescence, Sodium phosphate 20 mM, reversible: Yes) 0.8 M. Besides, the Tm by setting is: (Bacillus subtilis, pH 0.8, Thermal, CD, KCl-HCl 20 mM, reversible: No) 75 °C; (Bacillus subtilis, pH 4, Thermal, Fluorescence, Sodium acetate 50 mM, reversible: Yes) 45 °C; (Bacillus subtilis, pH 5.8, Thermal, DSC, NaAc 20 mM, reversible: No) 53 °C; (Bacillus subtilis, pH 6, Thermal, CD, phosphate buffer 20 mM) 54.6 °C; (Bacillus subtilis, pH 7, Thermal, CD, Sodium phosphate 20 mM, reversible: No) 47 °C. Further, the unfolding free energy (Bacillus subtilis, pH 5.8, 25 °C, Urea, Fluorescence, NaAc 20 mM, reversible: Yes) came out at 11.2 kcal/mol; the unfolding free energy (Bacillus subtilis, pH 5.8, 25 °C, Urea, NMR, NaAc 20 mM, reversible: Yes) came to 9.56 kcal/mol; the unfolding free energy (Bacillus subtilis, pH 7, 25 °C, Urea, Fluorescence, Sodium acetate 50 mM, reversible: Yes) was 11.4 kcal/mol; the unfolding free energy (Bacillus subtilis, pH 7.2, 25 °C, GdnHCl, CD, Sodium phosphate 50 mM, reversible: Yes) is 11.4 kcal/mol and 13.8 kcal/mol.
